This assay has as its target Cry11Aa toxin, trypsin-activated (Bacillus thuringiensis subsp. …, UniProt P21256 1-643). Briefly: ELISA.

B1: truncated AaeAPN1 fragment AaeAPN1t (amino acids 525-778) (domain or fragment)
chain: RTYETGDIIISQERFISDRKVPNTNVWMIPYNYVHQSKADFDDLSTFSWLSTKAARINTEVPANEWIIFNKQQVGYYRVNYDANNWELITNALINNLSSIDRLNRAQLIDDAYWLARSGRLDIEVLMKLLTYLKDETEYAPWTAANNVLSYFNGKLRGTPAYKDFTTMVDHLIKKVYKTLDVTAVSDTEPLLHKYLKQTISTWACLIGNEDCLKRTKEALQKEVTEGIPVHPDVATVVYCNGLRTADVAEYQYL
As to B1, the affinity, expressed as Kd, was 8.5 nM.
